{
  "source": "paper PMC11041768",
  "about": "“Broad sialic acid usage amongst species D human adenovirus” (npj Viruses, 2023)",
  "key": {"[1]": {"molecular_target": "HAdV-D29 fiber knob protein (human adenovirus D29)", "experiment": "crystal structure; apo crystals of recombinant fiber knob protein; Pact Premier Screen, 18 °C, data at 100 K; trimer seen in the structure"}, "[2]": {"molecular_target": "HAdV-D53 fiber knob protein (human adenovirus D53)", "experiment": "crystal structure; apo crystals of recombinant fiber knob protein; Pact Premier Screen, 18 °C, data at 100 K; trimer seen in the structure"}, "[3]": {"molecular_target": "HAdV-D24 fiber knob protein (human adenovirus D24)", "experiment": "crystal structure; apo crystals of recombinant fiber knob protein; Pact Premier Screen, 18 °C, data at 100 K; trimer seen in the structure"}, "[4]": {"molecular_target": "HAdV-D32 fiber knob protein (human adenovirus D32)", "experiment": "crystal structure; apo crystals of recombinant fiber knob protein; Pact Premier Screen, 18 °C, data at 100 K; trimer seen in the structure"}, "[5]": {"molecular_target": "T1, HAdV-D30 fiber-knob protein (Human adenovirus 30, UniProt M0QTV3)", "T1 construct": "gene L5; trimer", "experiment": "X-ray crystal structure of soaked crystal", "assay_type": "binding", "details": "10 mM soak; conserved apical pocket; mixture of alpha and beta anomers"}, "[6]": {"molecular_target": "T2, HAdV-D53 fiber-knob protein (Human adenovirus 53, UniProt E5RWD1)", "T2 construct": "gene L5; trimer", "experiment": "X-ray crystal structure of briefly soaked crystal", "assay_type": "binding", "details": "10 mM, very short soak; conserved apical pocket; beta anomer modelled"}, "[7]": {"molecular_target": "T3, HAdV-D25 fiber-knob protein (Human adenovirus 25, UniProt M0QUM1)", "T3 construct": "gene L5; trimer", "experiment": "X-ray crystal structure of soaked crystal", "assay_type": "binding", "details": "10 mM soak; conserved apical pocket; mixture of alpha and beta anomers"}, "[8]": {"molecular_target": "T4, HAdV-D29 fiber-knob protein (Human adenovirus 29, UniProt E1CIQ3)", "T4 construct": "gene L5; trimer", "experiment": "X-ray crystal structure of soaked crystal", "assay_type": "binding", "details": "10 mM soak; conserved apical pocket; mixture of alpha and beta anomers"}, "[9]": {"molecular_target": "HAdV-D15 fiber knob protein (human adenovirus D15)", "experiment": "crystal structure; apo crystals of recombinant fiber knob protein; Pact Premier Screen, 18 °C, data at 100 K; trimer seen in the structure"}, "[10]": {"molecular_target": "HAdV-D30 fiber knob protein (human adenovirus D30)", "experiment": "crystal structure; apo crystals of recombinant fiber knob protein; Pact Premier Screen, 18 °C, data at 100 K; trimer seen in the structure"}},
  "data": [
    {"compound": "HAdV-D29 fiber knob protein (domain or fragment)", "values": [
      {"measurement": "stoichiometry N", "setting": "[1]", "result": 3}
    ]},
    {"compound": "HAdV-D53 fiber knob protein (domain or fragment)", "values": [
      {"measurement": "stoichiometry N", "setting": "[2]", "result": 3}
    ]},
    {"compound": "HAdV-D24 fiber knob protein (domain or fragment)", "values": [
      {"measurement": "stoichiometry N", "setting": "[3]", "result": 3}
    ]},
    {"compound": "HAdV-D32 fiber knob protein (domain or fragment)", "values": [
      {"measurement": "stoichiometry N", "setting": "[4]", "result": 3}
    ]},
    {"compound": "CC(=O)N[C@H]1[C@H]([C@H](O)[C@H](O)CO)OC(O)(C(=O)O)C[C@@H]1O", "note": "(mixture of isomers) [sialic acid]", "values": [
      {"measurement": "X-ray crystal structure of soaked crystal", "setting": "[5]", "result": "four structures of HAdV-D25, D29, D30 and D53 in complex with sialic acid"},
      {"measurement": "X-ray crystal structure of briefly soaked crystal", "setting": "[6]", "result": "short soak allowed only two of four trimers in the asymmetric unit to bind β-sialic acid"},
      {"measurement": "X-ray crystal structure of soaked crystal", "setting": "[7]", "result": "four structures of HAdV-D25, D29, D30 and D53 in complex with sialic acid"},
      {"measurement": "X-ray crystal structure of soaked crystal", "setting": "[8]", "result": "four structures of HAdV-D25, D29, D30 and D53 in complex with sialic acid"}
    ]},
    {"compound": "HAdV-D15 fiber knob protein (domain or fragment)", "values": [
      {"measurement": "stoichiometry N", "setting": "[9]", "result": 3}
    ]},
    {"compound": "HAdV-D30 fiber knob protein (domain or fragment)", "values": [
      {"measurement": "stoichiometry N", "setting": "[10]", "result": 3}
    ]}
  ]
}
